One assay addresses T1, HLA-DR2b (human).
T1 construct: whole, on cells; also called DR2b [DRB1*1501]; HLA:DR2 (DRB1*1501)
Nature of the assay: conclusion of Example 6; tolerance induction in HLA:DR2 (DRB1*1501) transgenic mice, no direct binding assay.

The target in the next assay is HLA-DQ6 (human, UniProt P01909 24-254; P01920 33-261). Nature of the assay: cell-based or functional assay.

B1: MBP 140-154 (peptide)
peptide: GFKGVDAQGTLSKIF
notes: also called ATX-MS-06; APITOPE MS6
For B1, the binding result with HLA-DR2b is on record as “binds”.

B2: MBP 30-44 (peptide)
peptide: PRHRDTGILDSIGRF
Turning to B2, in the assay with HLA-DQ6, the proliferation of T-cell clone MS 49:D3 ([3H]-thymidine, stimulation index), against Mgar control cells is 1.5 fold.

B3: MBP 130-144 (peptide)
peptide: RASDYKSAHKGFKGV
Turning to B3, in the assay with HLA-DQ6, the “proliferation of T-cell clone MS17:A2 ([3H]-thymidine, stimulation index), against Mgar control cells” value amounted to 3.24 fold.

For the origin of these results see patent US8343500 (APITOPE TECHNOLOGY BRISTOL, dated 2013).
